Experimental findings from patent US20260055194A1 are described below.

Assay [1] deals with human CI-M6PR on K562 cells (human) (UniProt P11717). Kind of assay: flow cytometry dot plot, cell surface stain, wild type K562 cells [Cont. 1].
For assay [2] the target is unchanged. Kind of assay: flow cytometry, cell surface stain, M6PR-KO K562 cells, Alexa 647. (A flow cytometer gives signals particle by particle.)
Assay [3] shares this target. The assay can be described thus: flow cytometry dot plot, intracellular stain, M6PR-KO K562 cells [Cont. 2].
Assay [4] shares this target. Kind of assay: flow cytometry, intracellular stain (fixed, permeabilized), wild type K562 cells, Alexa 647.
Assay [5] shares this target. Kind of assay: flow cytometry, cell surface stain, wild type K562 cells, Alexa 647.
The target is the same in assay [6]. Kind of assay: flow cytometry, intracellular stain (fixed, permeabilized), M6PR-KO K562 cells, Alexa 647.
For assay [7] the target is unchanged. Kind of assay: flow cytometry dot plot, intracellular stain, wild type K562 cells [Cont. 1].
Assay [8] shares this target. Kind of assay: flow cytometry dot plot, cell surface stain, M6PR-KO K562 cells [Cont. 2].
Assay [9] has the same target. The assay can be described thus: cell-based or functional assay.

Chain of human CI-M6PR on K562 cells (human) (P11717 41-2491): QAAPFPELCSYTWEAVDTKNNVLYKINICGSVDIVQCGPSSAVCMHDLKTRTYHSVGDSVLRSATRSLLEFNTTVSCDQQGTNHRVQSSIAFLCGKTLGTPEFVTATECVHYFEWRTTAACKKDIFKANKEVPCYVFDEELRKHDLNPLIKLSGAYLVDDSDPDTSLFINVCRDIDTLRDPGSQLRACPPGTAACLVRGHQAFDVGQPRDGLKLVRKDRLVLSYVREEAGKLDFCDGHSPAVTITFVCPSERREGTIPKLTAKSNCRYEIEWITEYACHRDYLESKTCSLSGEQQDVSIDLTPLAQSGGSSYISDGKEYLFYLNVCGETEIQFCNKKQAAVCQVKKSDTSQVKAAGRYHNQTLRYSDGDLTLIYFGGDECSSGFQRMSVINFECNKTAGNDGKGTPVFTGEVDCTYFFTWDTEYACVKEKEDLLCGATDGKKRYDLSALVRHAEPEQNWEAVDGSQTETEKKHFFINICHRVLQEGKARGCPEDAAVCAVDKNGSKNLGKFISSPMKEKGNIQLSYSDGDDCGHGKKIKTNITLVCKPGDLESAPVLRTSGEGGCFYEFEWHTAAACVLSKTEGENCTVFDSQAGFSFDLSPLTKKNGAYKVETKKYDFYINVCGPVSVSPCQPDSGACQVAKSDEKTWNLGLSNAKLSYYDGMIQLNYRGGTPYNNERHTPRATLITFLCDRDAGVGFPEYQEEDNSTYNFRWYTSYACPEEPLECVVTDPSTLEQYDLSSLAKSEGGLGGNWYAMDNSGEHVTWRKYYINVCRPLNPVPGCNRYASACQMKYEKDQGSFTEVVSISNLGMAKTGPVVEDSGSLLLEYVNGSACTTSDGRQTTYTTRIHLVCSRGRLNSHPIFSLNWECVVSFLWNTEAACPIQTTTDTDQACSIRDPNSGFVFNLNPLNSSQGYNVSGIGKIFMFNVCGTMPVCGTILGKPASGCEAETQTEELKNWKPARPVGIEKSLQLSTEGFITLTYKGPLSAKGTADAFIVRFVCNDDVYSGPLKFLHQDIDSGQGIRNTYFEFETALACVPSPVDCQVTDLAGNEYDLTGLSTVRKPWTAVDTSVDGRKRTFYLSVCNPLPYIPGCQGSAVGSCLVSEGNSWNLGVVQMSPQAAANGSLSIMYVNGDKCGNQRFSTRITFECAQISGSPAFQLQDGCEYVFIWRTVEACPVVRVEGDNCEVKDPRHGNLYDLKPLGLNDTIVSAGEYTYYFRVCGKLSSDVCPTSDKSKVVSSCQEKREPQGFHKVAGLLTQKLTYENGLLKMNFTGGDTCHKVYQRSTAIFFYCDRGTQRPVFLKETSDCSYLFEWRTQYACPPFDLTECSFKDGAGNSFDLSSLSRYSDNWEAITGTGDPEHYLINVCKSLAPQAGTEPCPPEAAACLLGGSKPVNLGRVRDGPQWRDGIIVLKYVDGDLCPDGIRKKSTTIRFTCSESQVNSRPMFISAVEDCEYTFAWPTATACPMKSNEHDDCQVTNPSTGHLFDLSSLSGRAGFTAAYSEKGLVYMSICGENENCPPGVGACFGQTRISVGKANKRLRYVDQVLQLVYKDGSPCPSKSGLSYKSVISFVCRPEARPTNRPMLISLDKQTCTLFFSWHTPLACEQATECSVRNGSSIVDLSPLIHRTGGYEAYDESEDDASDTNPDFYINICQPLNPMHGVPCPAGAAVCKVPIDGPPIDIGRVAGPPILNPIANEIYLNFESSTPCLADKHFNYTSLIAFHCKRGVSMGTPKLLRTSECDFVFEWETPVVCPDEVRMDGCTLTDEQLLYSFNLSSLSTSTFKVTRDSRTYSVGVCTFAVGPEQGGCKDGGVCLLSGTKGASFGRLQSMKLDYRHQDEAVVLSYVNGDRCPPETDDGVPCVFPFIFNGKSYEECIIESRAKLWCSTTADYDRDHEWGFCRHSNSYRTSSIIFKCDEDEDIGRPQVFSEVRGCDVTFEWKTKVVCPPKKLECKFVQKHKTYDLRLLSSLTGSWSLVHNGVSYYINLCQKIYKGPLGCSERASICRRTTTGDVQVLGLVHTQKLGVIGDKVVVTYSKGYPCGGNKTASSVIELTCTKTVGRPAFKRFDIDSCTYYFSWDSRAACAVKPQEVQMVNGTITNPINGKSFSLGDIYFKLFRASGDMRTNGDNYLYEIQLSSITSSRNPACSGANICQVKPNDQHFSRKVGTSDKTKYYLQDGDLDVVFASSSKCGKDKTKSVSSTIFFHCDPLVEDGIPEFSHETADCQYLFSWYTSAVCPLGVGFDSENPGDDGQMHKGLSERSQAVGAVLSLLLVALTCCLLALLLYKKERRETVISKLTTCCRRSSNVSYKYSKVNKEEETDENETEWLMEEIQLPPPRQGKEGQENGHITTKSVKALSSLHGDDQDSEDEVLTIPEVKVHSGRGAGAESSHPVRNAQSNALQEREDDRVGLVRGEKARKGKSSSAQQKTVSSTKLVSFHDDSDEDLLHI
Chain of KLH-IGF2 (P01344 25-91): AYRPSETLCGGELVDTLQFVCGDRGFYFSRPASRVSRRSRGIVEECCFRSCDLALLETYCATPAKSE

As for IgG1-647 (antibody), the Q1 (events above the Alexa 647 gate, below the FITC gate) stood at 0.39 in assay [1] and 0.48 in [7]. The Median : FL18-A on M6PR-KO K562 cells (target knocked out, control) was 14.9 in [2] and 35.3 in [6]. Moreover, the Q1 on M6PR-KO K562 cells (target knocked out, control) in [3] was 0.39%; in [8] it was 1.47%. In addition, the values for the Median : FL18-A in [4] and in assay [5] were 48.4 and 15.7, respectively.

As for MEM-238-647 (antibody), the figures for the Q1 (events above the Alexa 647 gate, below the FITC gate) in assay [1] and in assay [7] were 99.2 and 99.5, respectively. Further, the Median : FL18-A on M6PR-KO K562 cells (target knocked out, control) in [2] is 27.7; in assay [6] it was 220. The Q1 on M6PR-KO K562 cells (target knocked out, control) in [3] is 86.8%; in assay [8], 13.1%. Besides, the Median : FL18-A in assay [4] was 3630; in assay [5], 1280.

KLH-IGF2 (from UniProt P01344 25-91) registered an Uptake pHrodo (MFI) in [9] of 210000 MFI.
